Source: paper PMC10042821, “Cryo-EM structure of human eIF5A-DHS complex reveals the molecular basis of hypusination-associated neurodegenerative disorders” (Nature Communications, 2023)
Positions count from the first letter of the chain named. Names may count otherwise.

B1: deoxyhypusine synthase K329A, catalytically dead variant, tag-free (enzyme, human, UniProt P49366 1-369, looked up)
chain: MEGSLEREAPAGALAAVLKHSSTLPPESTQVRGYDFNRGVNYRALLEAFGTTGFQATNFGRAVQQVNAMIEKKLEPLSQDEDQHADLTQSRRPLTSCTIFLGYTSNLISSGIRETIRYLVQHNMVDVLVTTAGGVEEDLIKCLAPTYLGEFSLRGKELRENGINRIGNLLVPNENYCKFEDWLMPILDQMVMEQNTEGVKWTPSKMIARLGKEINNPESVYYWAQKNHIPVFSPALTDGSLGDMIFFHSYKNPGLVLDIVEDLRLINTQAIFAKCTGMIILGGGVVKHHIANANLMRNGADYAVYINTAQEFDGSDSGARPDEAVSWGAIRVDAQPVKVYADASLVFPLLVAETFAQKMDAFMHEKNED
notes: deoxyhypusine synthase (DHS), Homo sapiens, UniProt P49366, residues 1-369; Tag removal follows the general purification procedure; used for cryo-EM, HDX-MS and crystallography; also called DHS^K329A; source: E. coli, purified (HisTrap, TEV cleavage, reverse HisTrap, SEC); not shown: His6, N-terminal, cleaved
B2: deoxyhypusine synthase N173S, patient-derived variant, tag-free (enzyme, human, UniProt P49366 1-369, looked up)
chain: B1 chain with N173S, A329K
notes: deoxyhypusine synthase (DHS), Homo sapiens, UniProt P49366, residues 1-369, pathological variant N173S; Tag removal follows the general purification procedure; also called DHS^N173S; source: E. coli, purified from the soluble fraction (HisTrap, TEV cleavage, reverse HisTrap, SEC); not shown: His6, N-terminal, cleaved
B3: deoxyhypusine synthase delY305_I306, patient-derived variant, tag-free (enzyme, human, UniProt P49366 1-369, looked up)
chain: MEGSLEREAPAGALAAVLKHSSTLPPESTQVRGYDFNRGVNYRALLEAFGTTGFQATNFGRAVQQVNAMIEKKLEPLSQDEDQHADLTQSRRPLTSCTIFLGYTSNLISSGIRETIRYLVQHNMVDVLVTTAGGVEEDLIKCLAPTYLGEFSLRGKELRENGINRIGNLLVPNENYCKFEDWLMPILDQMVMEQNTEGVKWTPSKMIARLGKEINNPESVYYWAQKNHIPVFSPALTDGSLGDMIFFHSYKNPGLVLDIVEDLRLINTQAIFAKCTGMIILGGGVVKHHIANANLMRNGADYAVNTAQEFDGSDSGARPDEAVSWGKIRVDAQPVKVYADASLVFPLLVAETFAQKMDAFMHEKNED
notes: deoxyhypusine synthase (DHS), Homo sapiens, UniProt P49366, residues 1-369, pathological variant lacking Y305 and I306; Tag removal follows the general purification procedure; also called DHS^delY305_I306; DHS^del305Y_306I; source: E. coli, purified from the soluble fraction (HisTrap, TEV cleavage, reverse HisTrap, SEC); not shown: His6, N-terminal, cleaved

Tests used:
[1] = biological target: the molecule itself; test: cryo-EM structure; complex reconstituted from purified eIF5A-1 and DHS K329A (2 mole eIF5A per 1 mole DHS), 200 mM glycine/NaOH pH 9.3, 200 mM NaCl, 1 mM NAD, 1 mM SPD, purified by SEC; 2.8 A
[2] = biological target: the molecule itself; test: mass photometry; Refeyn OneMP, final concentration ~1-5 nM; oligomeric state of DHS variants

Protein | stoichiometry N [1] | stoichiometry N [2]
B1 | 4 | 
B2 |  | 4
B3 |  | 2
